Test results published in the RNAGym collection of RNA variant scans (doi:10.1073/pnas.2313332121).

B1: TPR t1 (parent)
chain: GACCAAUCUGCCCUCAGAGCUCGAGAACAUCUUCGGAUGCAGAGGAGGCAGGCUUCGGUGGCGCGAUAGCGCCAACGUCCUCAACCUCCAAUGCAUCCCACCACAUGAUGAUGCCUGAAGAGCCUUGGUUUUUUG

Variants of: B1
Experiment: polymerase ribozyme fitness, log enrichment relative to wild type (log ratio); higher = more active; in vitro selection for triplet polymerase activity
In short: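 Each subunit of a heterodimeric triplet polymerase ribozyme was represented by a PCR-built, transcribed mutant library that underwent triplicate single-round in vitro selection with frozen incubation at −7 °C. Extended constructs were recovered by gel excision, streptavidin-bead capture and RT-PCR, and Illumina sequencing of input and output libraries kept genotypes with ≥10 input reads and ≥1 read per output. Fitness is the logarithm of genotype enrichment relative to wild-type enrichment, from inverse-variance-weighted replicate averages, with a logarithm base of 2.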

Variant | polymerase ribozyme fitness (log ratio)
GACCAAUCUGCCCUCAGAGCUCGAGAACAUCUUCGGAUGCAGUUGAGGCAGGCUUCGGUGGCGCGAUAGCGCCAACGUCCUCAACCUCCAAUGCAUCCCACCACAUGAUGAUGCCUGAAGAGCCUUGGUUUUUUG [A43U G44U] | -1.67
GACCAAUCUGCCCUCAGAGCUCGAGAACAUCUUCGGAUGCAGUGGAGGCAGGCUUGGGUGGCGCGAUAGCGCCAACGUCCUCAACCUCCAAUGCAUCCCACCACAUGAUGAUGCCUGAAGAGCCUUGGUUUUUUG [A43U C56G] | -1.4
GACCAAUCUGCCCUCAGAGCUCGAGAACAUCUUCGGAUGCAGUGGAGGCAGGCUUCGGUCGCGCGAUAGCGCCAAGGACCUCAACCUCCAAUGCAUCCCACCACAUGAUGAUCCCUGAAGAGCCAUGGUUUUUUG [A43U G60C C76G U78A G113C U125A] | -4.6
GACCAAUCUGCCCUCAGAGCUCGAGAACAUCUUCGGAUGCAGUGGAGGCAGGCUUCGGUGGCGCGAUAGCGCCAACAUCCUCAACCUCCAAUGCAUCCCACCACAUGAUGAUGCCUGAAAAGCCUUGGUUUUUGG [A43U G77A G120A U134G] | -0.215
GACCAAUCUGCCCUCAGAGCUCGAGAACAUCUUCGGAUGCAGUGGAGGCAGGCUUCGGUGGCGCGAUAGCGCCAACGUCCUCAACCUCCAAUUCAUCCCACCACAUGAUGAUGCCUGAAGAGCCUUGGUUUUUUG [A43U G93U] | -2.7
GACCAAUCUGCCCUCAGAGCUCGAGAACAUCUUCGGAUGCAGUGGAGGAAGGCUUCGGUGGCGCGAUAGCGCCAACGUCCUCAACCUCCAAUGCAUCCCACCACAUGAUGAUGGCUGAAGAGCCUUGGUUUUUUG [A43U C49A C114G] | -1.78
GACCAAUCUGCCCUCAGAGCUCGAGAACAUCUUCGGAUGCAGUGGAGGCAGGCUUCGGUGGCGCGAUAGCGCCAACGUCCUCAACCGCCAAUGCAUCCCACCACAUGAUGAUGCCUGAAGAGCCUUGGUUUUUUG [A43U U87G] | -1.43
GACCAAUCUGCCCUCAGAGCUCGAGAACAUCUUCGGAUGCAGUGGAGGCAGGCUUCGGUGGCGCGAUAGCGCCAACGUCCUCAACCUCCAAGGCAUCCCACCACAUGAUGAUGCCUGAAGAGCUUUGGUUUUUUG [A43U U92G C124U] | -0.53
GACCAAUCUGCCCUCAGAGCUCGAGAACAUCUUCGGAUGCAGUGGAGGCAGGUUUCGGUGGCGCGAUAGCGCCAGCGUCCUCAACCUACAACGCAUCCCACCACAUGAUGAUGCCUGAAGAGCCUUGGUUUUUUG [A43U C53U A75G C88A U92C] | -3.05
GACCAAUCUGCCCUCAGAGCUCGAGAACAUCUUCGGAUGCAGUGGAGGCAGUCUUCGGUGGCGCGAUGGCGCCAACGUCCUCAACCUCCAAUGCAUCCCACCACAUGAUGAUGCCUGAAGAGCUUUGGUUUUUUG [A43U G52U A68G C124U] | -5.64
GACCAAUCUGCCCUCAGAGCUCGAGAACAUCUUCGGAUGCAGUGGAGGCAGGCUUCGGUGUCGCGAUAGCGCCAACGUCCUCAACCUCCAAUUCAUCCCACCACAUGAUGAUGCCUGAAGAGCCUUGGUUUUUUG [A43U G61U G93U] | -1.76
GACCAAUCUGCCCUCAGAGCUCGAGAACAUCUUCGGAUGCAGUGGAGGCAGGCUUCGGUGGCGCGAUAGCGCCAACGUCCUCAACCUCCAAGGCAUCCCACCACAUGAUGAUGCCUGAAGAGCCUUGGUUUUUUG [A43U U92G] | -1.81
GACCAAUCUGCCCUCAGAGCUCGAGAACAUCUUCGGAUGCAGUGGAGGCAGGCUUCGGUGGCGCGAUACCGCCAACGUCCUCAACCUCCAAUGCAUCCCACCACAUGAUGAUGCCUGAAGAGCCUUGGUUUUUUG [A43U G69C] | -2.32
GACCAAUCUGCCCUCAGAGCUCGAGAACAUCUUCGGAUGCAGAAGUGGCAGGCUUCGGUGGCGCGAUAGCGCCAACGUCCUCAACCUCCAAUUCAUCCCACCAUAUGAUGAUGCCUGAAGAGCCUUGGUUUUUUG [G44A A46U G93U C104U] | -2.25
GACCAAUCUGCCCUCAGAGCUCGAGAACAUCUUCGGAUGCAGUGGAGGCAGGCUUCGGUGGCGCGAUAGCGCCAACGUCCUCAACCUCCAAUGCAUCCCACCACAUGAUUAUGCCUGAAGAGCCUUGGUUUUUUG [A43U G110U] | -3.52
GACCAAUCUGCCCUCAGAGCUCGAGAACAUCUUCGGAUGCAGUGGAGGCAGGCUUCGGUGGCGCGAUAGCGCCAACGUCCUCAACCUCCAAUGCAUCCCACCACAUGAUGAUGCCUGAAGAGCAUUGGUUUUUUG [A43U C124A] | 0.127
GACCAAUCUGCCCUCAGAGCUCGAGAACAUCUUCGGAUGCAGUGGAGGCAGGAUUCGGUGGAGCGAUAGCGCCAACGUCCUCAACCUCCAAUACAUCCCACCACAUGAUGACGCCUGAAGAGCCUUGUUUUUUUG [A43U C53A C62A G93A U112C G128U] | -4.57
GACCAAUCUGCCCUCAGAGCUCGAGAACAUCUUCGGAUGCAGUGGAGGCAGGCUUGGGUGGCGCGAUAGCGCCAACGUGCUCAACCUCCAAUGCAUCCCACCACAUGAUGAUGCCUGAAGAGCCUUGGUUUUUUG [A43U C56G C79G] | -4.99
GACCAAUCUGCCCUCAGAGCUCGAGAACAUCUUCGGAUGCAGUGGAGGCAGGCUUCGGUGGCGCGAUAGCUCCAACGUCCUCAACCUCCAGUGCAUCCCACCACAUGAUGAUGCCUGAAGAGCCUUGGUUUUUUG [A43U G71U A91G] | -2.96
GACCAAUCUGCCCUCAGAGCUCGAGAACAUCUUCGGAUGCAGUGGAGACAGGCUUUGGUGGCGCGAUAGCGCCAACGUCCUCAACCUCCAAUGCAUCCCACCACAUGAUGAUGCCUGAAGAGCCUUGGUUUUUUG [A43U G48A C56U] | -1.58
GACCAAUCUGCCCUCAGAGCUCGAGAACAUCUUCGGAUGCAGUGGAGGCAGGCUUCGGUGGCGCGAUAGCUCCAACGUCCUCAACCUCCAAUGCAUCCCACCACAUGAUGAUGCCUGAAGAGCCUUGGUUUUUUG [A43U G71U] | -1.89

Variant | polymerase ribozyme fitness (log ratio)
GACCAAUCUGCCCUCAGAGCUCGAGAACAUCUUCGGAUGCAGUGGAGGCAGGCUUCGGUGGCCCGAUAGCGCCAACGUCCUCAACCUCCAAUGCAUCCCUCCACAUGAUGAUGCCUGAAGAGCGUUGGUUUUUUG [A43U G63C A100U C124G] | -2.24
GACCAAUCUGCCCUCAGAGCUCGAGAACAUCUUCGGAUGCAGUGAAGGCAGGCUUUGGUGGUGCGAUAGCGCCAACGUCCUCAACCUCCAAAGCAUCCCACCACAUGAUGAUGCCUGAAGAGCCUUGGUUUUUUG [A43U G45A C56U C62U U92A] | -4.61
GACCAAUCUGCCCUCAGAGCUCGAGAACAUCUUCGGAUGCAGUGGAGGCAGGCUUCGGUGGAGCGAUAGCGCCAACGUCCUCAACCUCCAAUGCAUCCCACCACAUGAUGAUGCCUGAAGAGCCUUGGUUUUUUG [A43U C62A] | -2.39
GACCAAUCUGCCCUCAGAGCUCGAGAACAUCUUCGGAUGCAGUGGAGGCAGGCUUCGGUGGGGCGAUAGCGCCAACGUCCUCAACCUCCAAUGCAUCCCACCACAUGAUGAUGCCUGAAGAGCCUUGGUUUUUUG [A43U C62G] | -3.88
GACCAAUCUGCCCUCAGAGCUCGAGAACAUCUUCGGAUGCAGUGGAGGCAGGCUCCGGUGGCGCGAUAGCGCCAACGUCCUCAACCUCCAACGCAUCCCACCACAUGAUGAUGCCUGAAGAGCCUUGGUUUUUUG [A43U U55C U92C] | -2.54
GACCAAUCUGCCCUCAGAGCUCGAGAACAUCUUCGGAUGCAGUGGAGGCAGGCUUCGGUGGCGCGAUAGCACCAACGUCCUCAACCUCCAAUGCAUCCCACCACAUGAUGAUGCUUGAAGAGCCUUGGUUUUUUG [A43U G71A C115U] | -3.62
GACCAAUCUGCCCUCAGAGCUCGAGAACAUCUUCGGAUGCAGUGGAGGCAGGCUUCGGUGGCACGAUAGCGCCAACGUCCUCAACCUCCAAUGCAUCCCACCUCAUGAUGAUGCCUCAAGAGCCUUGGUUAUUUG [A43U G63A A103U G117C U131A] | -6.74
GACCAAUCUGCCCUCAGAGCUCGAGAACAUCUUCGGAUGCAGUGGAGGCAGGCUUCGUUGGCGCGAUAGCGCCAACGUCCUCAACCUCCAAUGCAUCCCACCACAUGAUGAUACCUGAAGAGCCUUGGUUUUUUG [A43U G58U G113A] | -2.63
GACCAAUCUGCCCUCAGAGCUCGAGAACAUCUUCGGAUGCAGUGGAGGCAGGCUUCGGUGGCGCGAUAGCGCCAACGUCCUCAACCUCCAAUGCACCCCAACACAUGAUGAUGCCUGAAGAACCUUAGUUUUUUG [A43U U96C C101A G122A G127A] | -5.79
GACCAAUCUGCCCUCAGAGCUCGAGAACAUCUUCGGAUGCAGUGGAGGCAGGCUUCGGUGGCGCGAUAGCGCCAACCAUCUCAACCUCCAAUGCAUCCCACCACAUGAUGAUGCCUGAAUAGCCUUGGUUCUUUG [A43U G77C U78A C79U G120U U131C] | -1.51
GACCAAUCUGCCCUCAGAGCUCGAGAACAUCUUCGGAUGCAGUGGAGGCAGGCUUCGGUGGCGCGAUAGCACCAACGUCCUCAACCUCCAGUGCAUCCCACCACAUGAUGAUGCCUGAAGAGCCUUGGUUUUUUG [A43U G71A A91G] | -3.35
GACCAAUCUGCCCUCAGAGCUCGAGAACAUCUUCGGAUGCAGUGGAGGCAGGCUUCGGUGGCGCGAUAGCGCCAACGUCCUCAACCUCCAAUCCAUCCCACCACAUGAUGAUGCCUCAAGAGCCUUGGUUUUUUG [A43U G93C G117C] | -4.65
GACCAAUCUGCCCUCAGAGCUCGAGAACAUCUUCGGAUGCAGUGGAGGCAGGCUUCGGUGGCGCGAUAGGGCCAACGUCCUCAACCUCCAAUGCAUCCCACCACAUGAUGAUGCCUGAAGAGCCUUGGUUUUUUG [A43U C70G] | -4.41
GACCAAUCUGCCCUCAGAGCUCGAGAACAUCUUCGGAUGCAGUGGAGGCAGGCUUCGGUGGCGCGAUAGCGCCAACGUCCUCAACCUCCAAUGCAUCCCACCACAUGAUGAUGCCUGAAGCGCCUUGGUUUUUUG [A43U A121C] | 0.506
GACCAAUCUGCCCUCAGAGCUCGAGAACAUCUUCGGAUGCAGUGGAGGCAGGCUUCGGUGGCGCGAUAGCGCCAACGUCCUCAACCUCCAAUGCAUCCCACCACAUGAUGAUGCCUGAAGUGCCUUGGUUUUUUG [A43U A121U] | 1.26
GACCAAUCUGCCCUCAGAGCUCGAGAACAUCUUCGGAUGCAGUGGAGGCAGGGUUCGGUGGCGCGAUAGCGCCAACGUCCUCAACCUCCAAUGCAUCCCACCACAUGAUGAUGCCUGAAGAGCCUUGGUUUUUUG [A43U C53G] | -1.38
GACCAAUCUGCCCUCAGAGCUCGAGAACAUCUUCGGAUGCAGUGGAGGCAGGCUUCGGUGGCGCGAUAGCGCCAACGUCCUCAACCUCCAAUGCAUCCCACCACAAGAUGAUGCCUGUAGAGCCUUGGUUUUUUG [A43U U106A A118U] | -1.2
GACCAAUCUGCCCUCAGAGCUCGAGAACAUCUUCGGAUGCAGUGGAGGCAGGCUUCGGUGGCGCGAUAGCGCCAAAGUCCUCAACCUCCAAUGCAUCCCACCACAUGAUGAUGCCUGAAGAGCCUUGGUUUUUUG [A43U C76A] | -2.98
GACCAAUCUGCCCUCAGAGCUCGAGAACAUCUUCGGAUGCAGUGGAGGCAGGCUUCGGGGGCGCGAUAGCGCCAACGUCCUCAACCUCCAAUGCAACCCACCACUUGAUGAUGCCUGAAGCGCCUUGGUUUUUUG [A43U U59G U96A A105U A121C] | -4.79
GACCAAUCUGCCCUCAGAGCUCGAGAACAUCUUCGGAUGCAGUGGAGGCAGGCUUCGGUGGCGCGAUAGCGCCAACGUCCUCAACCUCCAAUGCAUACCACCACAUGAUGAUGCCUGAAGAGCCUUGGUUUUUUG [A43U C97A] | -7.59
GACCAAUCUGCCCUCAGAGCUCGAGAACAUCUUCGGAUGCAGUGGAGGGAGGCUUCGGUGGCGCGAUAGCGCCAACGACCUCAACCUCCAAUGCAUCCCACCACAUGAUGAUGCAUGAAGAGCCUUGGUUUUUUG [A43U C49G U78A C115A] | -3.44
